Molecular target: NS3 helicase (NS3h) (Hepatitis C virus genotype 1b (Con1), UniProt Q9WMX2 1193-1660)
Assay: fluorescence polarization; 5 nM DNA, 15 nM NS3h, 1.25 mM MgCl2; FP: 25 mM MOPS pH 7.5, 1.25 mM MgCl2, 0.0025 mg/mL BSA, 0.005% Tween 20, 0.025 mM DTT, 1% DMSO, temperature not stated; EMSA: 50 mM Tris-Cl pH 7.4, 10% glycerol, 0 C, 20 min
Conditions: protein: recombinant; tags: His tag (pET21b(+), HisTrap purified); single strand

Sequence of NS3 helicase (NS3h) (Q9WMX2 1193-1660): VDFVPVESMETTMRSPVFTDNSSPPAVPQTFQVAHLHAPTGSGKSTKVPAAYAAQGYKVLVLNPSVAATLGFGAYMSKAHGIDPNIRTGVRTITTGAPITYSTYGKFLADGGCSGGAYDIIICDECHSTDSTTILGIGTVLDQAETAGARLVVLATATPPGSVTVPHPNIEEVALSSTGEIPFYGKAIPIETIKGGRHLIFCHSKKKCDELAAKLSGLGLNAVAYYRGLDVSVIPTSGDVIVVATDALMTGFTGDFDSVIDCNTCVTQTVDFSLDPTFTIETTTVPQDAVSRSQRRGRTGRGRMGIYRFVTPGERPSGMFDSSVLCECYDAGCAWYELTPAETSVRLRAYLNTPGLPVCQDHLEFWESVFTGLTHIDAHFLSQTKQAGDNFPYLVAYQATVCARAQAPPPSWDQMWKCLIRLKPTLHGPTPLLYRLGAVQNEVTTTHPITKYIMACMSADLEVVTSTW

TTTTTTTTTTTTTTT (ssDNA) [Cy5-dT15]
binding result: binds
